Laboratory results reported in article PMC3696110, “Hsp70 Oligomerization Is Mediated by an Interaction between the Interdomain Linker and the Substrate-Binding Domain” (PLoS ONE, 2013).
Values joined by “and” are separate entries in the source; they are usually repeats but may differ in a detail not shown here. Equal entries are not always repeated.

Legend:
Assay type in all cases: physicochemical, human
[1] = Analytical SEC relative populations of oligomeric forms; details: for Dimer population / Monomer population / Total oligomer population: Superdex 75, 4 °C, 50 mM Tris pH 7.4, 150 mM KCl
Protocol: Analytical SEC was performed at 4 °C using a Superdex 75 10/300 GL column (GE Healthcare LifeSciences, Little Chalfont, U.K.), which had previously been calibrated using a mixture of standard proteins (Gel Filtration LMW Calibration Kit; GE Healthcare LifeSciences, Little Chalfont, U.K.). Typically, samples of the various constructs contained 70 µM of protein in 50 mM Tris buffer at pH 7.4, with 150 mM KCl, 5 mM MgCl2 and were incubated for 15 min (unless otherwise specified) at room temperature before being loaded onto the column for analysis. To evaluate the reversibility of the oligomerization process, the different elution peaks obtained for each protein variant were subsequently analyzed after concentrating the different fractions using AmiconUltra-0.5, Ultracel-3 Membrane, 3 kDa (Millipore, Bedford, MA, USA). A similar analysis was also performed at 6 µM concentration for all the protein variants to allow for a direct comparison between the results obtained by SEC and MS experiments.
The influence of substrate binding on the oligomerization properties of all the variants was examined by using the well-characterized Hsp70 substrate, the NR peptide (NRLLLTG, Genemed Synthesis Inc., San Antonio, TX, USA). A 14-fold excess of the peptide was added in each case to a fresh protein sample, incubated for 1 h at room temperature, unless otherwise specified, and then loaded onto the Superdex 75 10/300 GL column for analysis. The relative quantities of the different protein species were estimated by analysing the chromatographic profile using a Gaussian function for each elution peak (OriginPro 8, Originlab, Northampton, MA, USA) and measuring the relative area under each peak.

[2] = Thermal denaturation monitored by far-UV CD
Protocol: Protein structural stability was analyzed by monitoring the CD signal at 222 nm upon thermal denaturation. Thermal runs were performed from 5 to 90 °C at a rate of 1 °C. min^-1. Data points were acquired every 0.1 °C with a response time of 2 s and a bandwidth of […]. After thermal denaturation, each protein sample was cooled to the starting temperature, and a second denaturation curve recorded in order to analyse the degree of reversibility of the denaturation process. Analysis of the thermal unfolding curves was performed assuming a three-state unfolding model.

[3] = Tryptophan (W580) fluorescence emission; details: W580, excitation 295 nm
Protocol: Steady-state tryptophan fluorescence emission spectra of native, thermally denatured and refolded proteins were recorded from 300 to 400 nm, selectively exciting the only tryptophan residue in the SBD (W580) at 295 nm, using a Cary Eclipse spectrofluorimeter (Varian, Palo Alto, CA, USA). Excitation and emission band-passes were set to 5 nm each.

[4] = 70 µM protein, 5 mM MgCl2, 15 min at room temperature, estimated error 3.5% (SD of 3-4 independent experiments)
[5] = 6-15 µM protein, 5 mM MgCl2, estimated error 3.5% (SD of 3-4 independent experiments)

## SBD641: truncated human Hsp70 (384-641), full-length SBD with interdomain linker
[1]; [4]
  Dimer population: 55%
  Monomer population: 23%
  Total oligomer population: 77%
[1]; [5]
  Dimer population: 44%
  Monomer population: 37%
  Total oligomer population: > 50% and 63%
[1]; native SBD641, comparison with refolded
  Monomeric fraction, native protein: 37%
[1]; refolded after thermal denaturation
  Monomeric fraction, refolded protein: 71%
[2]; CD 222 nm, 20 µM protein, 7 mM Tris pH 7.4, 170 mM KCl, 5 mM MgCl2, three-state fit (C-term two-state), SE of fit
  ∆Hm, 1st transition: 207 ± 13.8 kJ/mol
[2]; CD 222 nm, 20 µM protein, 7 mM Tris pH 7.4, 170 mM KCl, 5 mM MgCl2, three-state fit, SE of fit
  ∆Hm, 2nd transition: 223 ± 5.02 kJ/mol
[2]; CD 222 nm, 5 to 90 °C at 1 °C/min, 20 µM protein, 7 mM Tris pH 7.4, 170 mM KCl, 5 mM MgCl2, three-state fit (C-term two-state), SE of fit
  Tm, 1st transition: 45.6 ± 0.4 °C
[2]; CD 222 nm, 5 to 90 °C at 1 °C/min, 20 µM protein, 7 mM Tris pH 7.4, 170 mM KCl, 5 mM MgCl2, three-state fit, SE of fit
  Tm, 2nd transition: 73.1 ± 0.1 °C and 73.1 ± 0.2 °C
[2]; far-UV CD
  Degree of irreversibility of overall protein thermal denaturation: ca. 20%
[2]; far-UV CD, second denaturation curve after cooling
  Reversibility of thermal unfolding: is not
[3]
  Wavelength of fluorescence emission maximum, native: 340 nm
  Wavelength of fluorescence emission maximum, refolded: 345 nm
  Wavelength of fluorescence emission maximum, thermally denatured: 350 nm
